Consider one substance from US20210347846A1.

The target of assay [1] is transient receptor potential melastatin subfamily member 4 (TRPM4), mouse (mouse) (UniProt Q7TN37). The experiment in a line: co-immunoprecipitation with anti-TRPM4 antibody from cortical lysates of mice 6 h after i.p. injection of small-molecule compound P4 (40 mg/kg), against control mice.
Assay [2] has the same target. The experiment in a line: co-immunoprecipitation with anti-TRPM4 antibody from cortical lysates of mice 2 h after i.p. injection of small-molecule compound P4 (40 mg/kg), against control mice.

UniProt Q7TN37, sequence (Q7TN37 whole entry): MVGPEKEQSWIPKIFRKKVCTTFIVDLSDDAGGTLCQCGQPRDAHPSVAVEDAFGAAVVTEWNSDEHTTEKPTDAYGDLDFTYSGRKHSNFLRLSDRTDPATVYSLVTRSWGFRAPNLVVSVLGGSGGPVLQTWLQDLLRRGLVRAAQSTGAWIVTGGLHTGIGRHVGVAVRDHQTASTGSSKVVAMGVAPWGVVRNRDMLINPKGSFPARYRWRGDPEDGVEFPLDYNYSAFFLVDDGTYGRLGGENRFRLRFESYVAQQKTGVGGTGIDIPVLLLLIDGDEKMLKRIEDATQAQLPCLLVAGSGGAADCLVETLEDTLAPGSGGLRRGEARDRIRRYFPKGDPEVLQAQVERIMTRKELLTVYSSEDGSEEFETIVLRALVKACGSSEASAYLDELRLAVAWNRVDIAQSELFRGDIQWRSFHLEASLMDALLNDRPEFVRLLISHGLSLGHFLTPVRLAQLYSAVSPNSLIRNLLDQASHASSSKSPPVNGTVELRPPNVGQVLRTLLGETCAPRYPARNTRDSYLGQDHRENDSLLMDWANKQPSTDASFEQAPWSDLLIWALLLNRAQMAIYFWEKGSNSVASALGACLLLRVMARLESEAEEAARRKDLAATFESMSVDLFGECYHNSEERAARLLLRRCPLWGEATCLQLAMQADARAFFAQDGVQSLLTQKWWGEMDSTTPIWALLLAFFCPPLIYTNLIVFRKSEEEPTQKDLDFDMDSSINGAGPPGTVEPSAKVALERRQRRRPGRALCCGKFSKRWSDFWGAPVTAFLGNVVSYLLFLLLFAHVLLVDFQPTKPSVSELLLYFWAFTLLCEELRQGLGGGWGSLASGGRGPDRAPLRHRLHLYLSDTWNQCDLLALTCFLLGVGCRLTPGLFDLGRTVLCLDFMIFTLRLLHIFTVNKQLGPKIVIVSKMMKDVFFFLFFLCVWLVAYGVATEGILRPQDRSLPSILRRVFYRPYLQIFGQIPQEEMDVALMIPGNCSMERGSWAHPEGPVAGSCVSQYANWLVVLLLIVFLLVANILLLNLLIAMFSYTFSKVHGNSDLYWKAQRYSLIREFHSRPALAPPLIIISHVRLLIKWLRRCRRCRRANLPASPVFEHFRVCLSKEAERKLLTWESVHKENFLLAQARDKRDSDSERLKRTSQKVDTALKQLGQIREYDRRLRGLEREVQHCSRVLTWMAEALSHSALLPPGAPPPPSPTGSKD

For the substance “GRIN2B subunit of the NMDA receptor, mouse (from UniProt Q01097 27-1482)”, the reduction in NMDA receptor/TRPM4 complex formation in assay [1] was 61%; in assay [2], 51%.
